# Assay results as given in the RNAGym collection of RNA variant scans (doi:10.7554/elife.90254).
# B1: LINE1-full (parent)
# chain: UACGUAGGUGGUUUUCCCCUGAUAGUGCUAAGGGGGCCUGGAAGUUUGGACUGGGCAGAGCUCAACACAGCGUGGCAAAGUGGCUGUGGCUAGACUGCCUCUCUGGAUUCCUCGUCACUCAGCAGGGCAUCUCUGAGAGAAAUGCC
# Variants of: B1
# Assay: self-cleavage, relative activity (ratio to wild type); higher = more cleavage; in vitro, sequencing; the parent is a self-cleaving ribozyme
row,Variant,self-cleavage
1,AACGUAGGUGGUUUUCCCCUGAUAGUGCUAAGGGGGCCUGGAAGUUUGGACUGGGCAGAGCUCAACACAGCGUGGCAAAGUGGCUGUGGCUAGACGGCCUCUCUGGAUUCCUCGUCACUCAGCAGGGCAUCUCUGAGAGAAAUGCC [U1A U96G],0
2,AACGUAGGUGGUUUUCCCCUGAUAGUGCUAAGGGGGCCUGGAAGUUUGGACUGGGCAGAGCUCAACACAGCGUGGCAAAGUGGCUGUGGCUAGACUGCCUCACUGGAUUCCUCGUCACUCAGCAGGGCAUCUCUGAGAGAAAUGCC [U1A U102A],0.48
3,AACGUAGGUGGUUUUCCCCUGAUAGUGCUAAGGGGGCCUGGAAGUUUGGACUGGGCAGAGCUCAACACAGCGUGGCAAAGUGGCUGUGGCUAGACUGCCUCUCAGGAUUCCUCGUCACUCAGCAGGGCAUCUCUGAGAGAAAUGCC [U1A U104A],1.2
4,AACGUAGGUGGUUUUCCCCUGAUAGUGCUAAGGGGGCCUGGAAGUUUGGACUGGGCAGAGCUCAACACAGCGUGGCAAAGUGGCUGUGGCUAGACUGCCUCUCCGGAUUCCUCGUCACUCAGCAGGGCAUCUCUGAGAGAAAUGCC [U1A U104C],1.51
5,AACGUAGGUGGUUUUCCCCUGAUAGUGCUAAGGGGGCCUGGAAGUUUGGACUGGGCAGAGCUCAACACAGCGUGGCAAAGUGGCUGUGGCUAGACUGCCUCUCUGGACUCCUCGUCACUCAGCAGGGCAUCUCUGAGAGAAAUGCC [U1A U108C],0.77
6,AACGUAGGUGGUUUUCCCCUGAUAGUGCUAAGGGGGCCUGGAAGUUUGGACUGGGCAGAGCUCAACACAGCGUGGCAAAGUGGCUGUGGCUAGACUGCCUCUCUGGAUUCCCCGUCACUCAGCAGGGCAUCUCUGAGAGAAAUGCC [U1A U112C],1.03
7,AACGUAGGUGGUUUUCCCCUGAUAGUGCUAAGGGGGCCUGGAAGUUUGGACUGGGCAGAGCUCAACACAGCGUGGCAAAGUGGCUGUGGCUAGACUGCCUCUCUGGAUUCCUCGUCACUCAGCAGGGCACCUCUGAGAGAAAUGCC [U1A U130C],1.46
8,AACGUAGGUGGUUUUCCCCUGAUAGUGCUAAGGGGGCCUGGAAGUUUGGACUGGGCAGAGCUCAACACAGCGUGGCAAAGUGGCUGUGGCUAGACUGCCUCUCUGGAUUCCUCGUCACUCAGCAGGGCAUCUCCGAGAGAAAUGCC [U1A U134C],0.47
9,AACGUAGGUGGUUUUCCCCUGAUAGUGCUAAGGGGGCCUGGAAGUUUGGACUGGGCAGAGCUCAACACAGCGUGGCAAAGUGGCUGUGGCUAGACUGCCUCUCUGGAUUCCUCGUCACUCAGCAGGGCAUCUCUGAGAGAAAAGCC [U1A U143A],1.04
10,CACGUAGGUGGUUUUCCCCUGAUAGUGCUAAGGGGGCCUGGAAGUUUGGACUGGGCAGAGCUCAACACAGCGUGGCAAAGUGGCUGUGGCUAGACUGCCUCUCUGGAUUCCUCGUCACUCAGCAGGGCAUCUCUGAGAGAAAUGCC [U1C],0.86
11,CGCGUAGGUGGUUUUCCCCUGAUAGUGCUAAGGGGGCCUGGAAGUUUGGACUGGGCAGAGCUCAACACAGCGUGGCAAAGUGGCUGUGGCUAGACUGCCUCUCUGGAUUCCUCGUCACUCAGCAGGGCAUCUCUGAGAGAAAUGCC [U1C A2G],0.72
12,CACGUAGGUGGUUUUCCCCUGGUAGUGCUAAGGGGGCCUGGAAGUUUGGACUGGGCAGAGCUCAACACAGCGUGGCAAAGUGGCUGUGGCUAGACUGCCUCUCUGGAUUCCUCGUCACUCAGCAGGGCAUCUCUGAGAGAAAUGCC [U1C A22G],0.84
13,CACGUAGGUGGUUUUCCCCUGUUAGUGCUAAGGGGGCCUGGAAGUUUGGACUGGGCAGAGCUCAACACAGCGUGGCAAAGUGGCUGUGGCUAGACUGCCUCUCUGGAUUCCUCGUCACUCAGCAGGGCAUCUCUGAGAGAAAUGCC [U1C A22U],0.54
14,CACGUAGGUGGUUUUCCCCUGAUCGUGCUAAGGGGGCCUGGAAGUUUGGACUGGGCAGAGCUCAACACAGCGUGGCAAAGUGGCUGUGGCUAGACUGCCUCUCUGGAUUCCUCGUCACUCAGCAGGGCAUCUCUGAGAGAAAUGCC [U1C A24C],0.91
15,CACGUAGGUGGUUUUCCCCUGAUGGUGCUAAGGGGGCCUGGAAGUUUGGACUGGGCAGAGCUCAACACAGCGUGGCAAAGUGGCUGUGGCUAGACUGCCUCUCUGGAUUCCUCGUCACUCAGCAGGGCAUCUCUGAGAGAAAUGCC [U1C A24G],1.15
16,CACGUAGGUGGUUUUCCCCUGAUAGUGCUGAGGGGGCCUGGAAGUUUGGACUGGGCAGAGCUCAACACAGCGUGGCAAAGUGGCUGUGGCUAGACUGCCUCUCUGGAUUCCUCGUCACUCAGCAGGGCAUCUCUGAGAGAAAUGCC [U1C A30G],0.73
17,CACGUAGGUGGUUUUCCCCUGAUAGUGCUACGGGGGCCUGGAAGUUUGGACUGGGCAGAGCUCAACACAGCGUGGCAAAGUGGCUGUGGCUAGACUGCCUCUCUGGAUUCCUCGUCACUCAGCAGGGCAUCUCUGAGAGAAAUGCC [U1C A31C],1.33
18,CACGUAGGUGGUUUUCCCCUGAUAGUGCUAAGGGGGCCUGGAAGUUUGGGCUGGGCAGAGCUCAACACAGCGUGGCAAAGUGGCUGUGGCUAGACUGCCUCUCUGGAUUCCUCGUCACUCAGCAGGGCAUCUCUGAGAGAAAUGCC [U1C A50G],0.64
19,CACGUAGGUGGUUUUCCCCUGAUAGUGCUAAGGGGGCCUGGAAGUUUGGACUGGGCGGAGCUCAACACAGCGUGGCAAAGUGGCUGUGGCUAGACUGCCUCUCUGGAUUCCUCGUCACUCAGCAGGGCAUCUCUGAGAGAAAUGCC [U1C A57G],0.56
20,CACGUAGGUGGUUUUCCCCUGAUAGUGCUAAGGGGGCCUGGAAGUUUGGACUGGGCAGAGCUCAGCACAGCGUGGCAAAGUGGCUGUGGCUAGACUGCCUCUCUGGAUUCCUCGUCACUCAGCAGGGCAUCUCUGAGAGAAAUGCC [U1C A65G],0.07

row,Variant,self-cleavage
1,CACGUAGGUGGUUUUCCCCUGAUAGUGCUAAGGGGGCCUGGAAGUUUGGACUGGGCAGAGCUCAUCACAGCGUGGCAAAGUGGCUGUGGCUAGACUGCCUCUCUGGAUUCCUCGUCACUCAGCAGGGCAUCUCUGAGAGAAAUGCC [U1C A65U],0.06
2,CACGUAGGUGGUUUUCCCCUGAUAGUGCUAAGGGGGCCUGGAAGUUUGGACUGGGCAGAGCUCAACGCAGCGUGGCAAAGUGGCUGUGGCUAGACUGCCUCUCUGGAUUCCUCGUCACUCAGCAGGGCAUCUCUGAGAGAAAUGCC [U1C A67G],0.41
3,CACGUAGGUGGUUUUCCCCUGAUAGUGCUAAGGGGGCCUGGAAGUUUGGACUGGGCAGAGCUCAACACCGCGUGGCAAAGUGGCUGUGGCUAGACUGCCUCUCUGGAUUCCUCGUCACUCAGCAGGGCAUCUCUGAGAGAAAUGCC [U1C A69C],0.07
4,CACGUAGGUGGUUUUCCCCUGAUAGUGCUAAGGGGGCCUGGAAGUUUGGACUGGGCAGAGCUCAACACGGCGUGGCAAAGUGGCUGUGGCUAGACUGCCUCUCUGGAUUCCUCGUCACUCAGCAGGGCAUCUCUGAGAGAAAUGCC [U1C A69G],0.42
5,CACGUAGGUGGUUUUCCCCUGAUAGUGCUAAGGGGGCCUGGAAGUUUGGACUGGGCAGAGCUCAACACUGCGUGGCAAAGUGGCUGUGGCUAGACUGCCUCUCUGGAUUCCUCGUCACUCAGCAGGGCAUCUCUGAGAGAAAUGCC [U1C A69U],0.04
6,CACGUAGGUGGUUUUCCCCUGAUAGUGCUAAGGGGGCCUGGAAGUUUGGACUGGGCAGAGCUCAACACAGCGUGGCGAAGUGGCUGUGGCUAGACUGCCUCUCUGGAUUCCUCGUCACUCAGCAGGGCAUCUCUGAGAGAAAUGCC [U1C A77G],1.32
7,CACGUAGGUGGUUUUCCCCUGAUAGUGCUAAGGGGGCCUGGAAGUUUGGACUGGGCAGAGCUCAACACAGCGUGGCAAGGUGGCUGUGGCUAGACUGCCUCUCUGGAUUCCUCGUCACUCAGCAGGGCAUCUCUGAGAGAAAUGCC [U1C A79G],0.86
8,CACGUAGGUGGUUUUCCCCUGAUAGUGCUAAGGGGGCCUGGAAGUUUGGACUGGGCAGAGCUCAACACAGCGUGGCAAAGUGGCUGUGGCUAGGCUGCCUCUCUGGAUUCCUCGUCACUCAGCAGGGCAUCUCUGAGAGAAAUGCC [U1C A94G],0.24
9,CACGUAGGUGGUUUUCCCCUGAUAGUGCUAAGGGGGCCUGGAAGUUUGGACUGGGCAGAGCUCAACACAGCGUGGCAAAGUGGCUGUGGCUAGACUGCCUCUCUGGGUUCCUCGUCACUCAGCAGGGCAUCUCUGAGAGAAAUGCC [U1C A107G],0.75
10,CACGUAGGUGGUUUUCCCCUGAUAGUGCUAAGGGGGCCUGGAAGUUUGGACUGGGCAGAGCUCAACACAGCGUGGCAAAGUGGCUGUGGCUAGACUGCCUCUCUGGAUUCCUCGUCACUCGGCAGGGCAUCUCUGAGAGAAAUGCC [U1C A121G],0.79
11,CACGUAGGUGGUUUUCCCCUGAUAGUGCUAAGGGGGCCUGGAAGUUUGGACUGGGCAGAGCUCAACACAGCGUGGCAAAGUGGCUGUGGCUAGACUGCCUCUCUGGAUUCCUCGUCACUCUGCAGGGCAUCUCUGAGAGAAAUGCC [U1C A121U],1.06
12,CACGUAGGUGGUUUUCCCCUGAUAGUGCUAAGGGGGCCUGGAAGUUUGGACUGGGCAGAGCUCAACACAGCGUGGCAAAGUGGCUGUGGCUAGACUGCCUCUCUGGAUUCCUCGUCACUCAGCGGGGCAUCUCUGAGAGAAAUGCC [U1C A124G],0.75
13,CACGUAGGUGGUUUUCCCCUGAUAGUGCUAAGGGGGCCUGGAAGUUUGGACUGGGCAGAGCUCAACACAGCGUGGCAAAGUGGCUGUGGCUAGACUGCCUCUCUGGAUUCCUCGUCACUCAGCAGGGCGUCUCUGAGAGAAAUGCC [U1C A129G],1.38
14,CACGUAGGUGGUUUUCCCCUGAUAGUGCUAAGGGGGCCUGGAAGUUUGGACUGGGCAGAGCUCAACACAGCGUGGCAAAGUGGCUGUGGCUAGACUGCCUCUCUGGAUUCCUCGUCACUCAGCAGGGCAUCUCUGUGAGAAAUGCC [U1C A136U],1.15
15,CACGUAGGUGGUUUUCCCCUGAUAGUGCUAAGGGGGCCUGGAAGUUUGGACUGGGCAGAGCUCAACACAGCGUGGCAAAGUGGCUGUGGCUAGACUGCCUCUCUGGAUUCCUCGUCACUCAGCAGGGCAUCUCUGAGGGAAAUGCC [U1C A138G],0.7
16,CACGUAGGUGGUUUUCCCCUGAUAGUGCUAAGGGGGCCUGGAAGUUUGGACUGGGCAGAGCUCAACACAGCGUGGCAAAGUGGCUGUGGCUAGACUGCCUCUCUGGAUUCCUCGUCACUCAGCAGGGCAUCUCUGAGAGGAAUGCC [U1C A140G],0.99
17,CACGUAGGUGGUUUUCCCCUGAUAGUGCUAAGGGGGCCUGGAAGUUUGGACUGGGCAGAGCUCAACACAGCGUGGCAAAGUGGCUGUGGCUAGACUGCCUCUCUGGAUUCCUCGUCACUCAGCAGGGCAUCUCUGAGAGAAGUGCC [U1C A142G],0.99
18,CACGUAGGUGGUUUUCCCUUGAUAGUGCUAAGGGGGCCUGGAAGUUUGGACUGGGCAGAGCUCAACACAGCGUGGCAAAGUGGCUGUGGCUAGACUGCCUCUCUGGAUUCCUCGUCACUCAGCAGGGCAUCUCUGAGAGAAAUGCC [U1C C19U],0.66
19,CACGUAGGUGGUUUUCCCCUGAUAGUGCUAAGGGGGGCUGGAAGUUUGGACUGGGCAGAGCUCAACACAGCGUGGCAAAGUGGCUGUGGCUAGACUGCCUCUCUGGAUUCCUCGUCACUCAGCAGGGCAUCUCUGAGAGAAAUGCC [U1C C37G],0.73
